The test addresses T1, Aβ1-42 oligomers (Aβ1-42 preparation consisting predominantly of higher oligomers) (UniProt P05067 672-713).
T1 construct: domain: Aβ1-42; Oligomeric aggregate; also called Aβ oligomers; Aβ-oligomer
The test is described as follows: ELISA: ABP immobilized on the plate, exposed to Aβ, bound Aβ detected with 6E10 or 4G8. The method, then:
ELISA: Aβ-binding assays were carried out as described by Chakravarthy et al (2013). Maxisorp 96-well ELISA plates (Nunc) were coated with (100-500 ng/well) either free ABP (synthetic) or various FC5-ABP constructs overnight at 4° C. in PBS. The wells were blocked with 1% BSA in TBS-T for 30 min and then incubated with Af31-42 preparations consisting predominantly of either monomer and dimers (Mo) or higher oligomers (010 in TBS-T at RT for 45 min with gentle agitation. Following three TBS-T washes, bound Aβ was detected by incubating HRP-conjugated Aβ-specific antibody (6E10 or 4G8) for 90 min at RT in TBS-T. The bound antibody was detected with SureBlueTM TMB reagent kit (KPL) by colorimetric measurement at 450 nm according to manufacturer's instructions.
A Coomassie blue stained gel after separation of FC5 fusion molecules by SDS-PAGE (NR-non-reducing and R-reducing conditions) indicating successful production of recombinant fusion molecule is shown in FIG. 2A. Free or fused ABP was immobilized on ELISA plate by coating samples in phosphate buffered saline (PBS) overnight at 4° C. and exposed to Aβ preparations as described by Chakravarthy et al., 2013. Bound Aβ was detected with Aβ-specific antibody 6E10 or 4G8 (Chakravarthy et al., 2013). […] Bound Aβ was detected with specific antibody as above. […]
(In general: In an ELISA, binding on a coated surface is turned into a signal by an enzyme label.)

T1 sequence (P05067 672-713 limits assumed): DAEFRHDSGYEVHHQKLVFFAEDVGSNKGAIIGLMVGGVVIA

B1: free ABP (synthetic amyloid-binding peptide) (peptide)
peptide: KTFKTRKASAQASLASKDKTPKSKSKKRNSTQLKSRVKNI
notes: also called P4-5 peptide (ABP)
For B1, the binding result is “binds”.
